Kd, koff and kon data for one substance are collected here from article PMC10042849.

For this test, the target named is EndoS2_(E186L), catalytically inactive EndoS2 (Streptococcus pyogenes (serotype M49)) (UniProt T1WGN1). The test is described as follows: NMR titration; methyl-TROSY (1H,13C HMQC) spectra of MILV methyl-labelled enzyme (45-128 µM) titrated with ligand; 2D lineshape fitting with TITAN, two-state binding model; 20 mM Tris-d11 pH* 7.50, 50 mM NaCl in D2O; 600 MHz, 298 K.

For orientation: Kd means the free concentration of one partner at which half of the binding sites on the other are occupied at equilibrium, for simple one-to-one binding. The low end stands for a tighter complex, the high end for a looser complex. The koff is the first-order rate constant of dissociation. Read a high koff as a short-lived complex. As usually defined, the kon is a measure of how fast the partners come together. Read a high kon as faster complex formation.

Take “Fc region of the IgG1 monoclonal antibody Rituximab (Fc-Rituximab) (from UniProt P01857 1-328) (domain or fragment)”: the dissociation constant Kd was determined as 3.1 µM, the koff amounted to 4 s⁻¹ and the kon stood at 1.3e+06 M⁻¹ s⁻¹.
